From publication PMC3402383

Key:
[1] = target: human complement protein C3b (human) (UniProt P01024); assay: ELISA; C3b or C4b (1 µg) immobilised in microtiter wells in PBS pH 7.2; up to 1 µM His-tagged Lig protein in 2% BSA-PBS pH 7.2, 37°C, 1 h; detected with anti-His antibody; apparent Kd = concentration of LigB that gives half-maximal binding
[2] = target: human complement protein C4b (human) (UniProt P0C0L4); assay: as above
[3] = target: human complement protein C3b (human) (UniProt P01024); settings: scale: % of complement activity in untreated serum
[4] = target: human complement protein C4b (human) (UniProt P0C0L4)

Chain of human complement protein C3b (human) (P01024 23-667, chain 1 of 2): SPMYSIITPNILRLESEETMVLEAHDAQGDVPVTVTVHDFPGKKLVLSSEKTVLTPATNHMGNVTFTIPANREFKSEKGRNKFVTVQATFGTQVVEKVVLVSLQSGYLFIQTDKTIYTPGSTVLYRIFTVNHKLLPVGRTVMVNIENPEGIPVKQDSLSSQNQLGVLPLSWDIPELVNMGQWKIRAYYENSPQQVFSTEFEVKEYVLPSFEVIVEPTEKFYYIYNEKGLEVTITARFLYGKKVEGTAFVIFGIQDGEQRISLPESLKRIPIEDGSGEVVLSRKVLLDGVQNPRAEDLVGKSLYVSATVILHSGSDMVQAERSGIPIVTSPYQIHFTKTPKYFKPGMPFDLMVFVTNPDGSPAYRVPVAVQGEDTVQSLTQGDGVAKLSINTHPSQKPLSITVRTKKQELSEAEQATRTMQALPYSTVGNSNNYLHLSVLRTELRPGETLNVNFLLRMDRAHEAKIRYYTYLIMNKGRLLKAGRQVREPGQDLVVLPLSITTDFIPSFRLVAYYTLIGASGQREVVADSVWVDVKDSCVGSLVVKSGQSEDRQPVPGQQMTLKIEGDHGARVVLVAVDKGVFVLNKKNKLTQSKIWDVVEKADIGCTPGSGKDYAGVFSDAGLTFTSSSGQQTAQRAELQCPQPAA
Chain of human complement protein C3b (human) (P01024 749-1663, chain 2 of 2): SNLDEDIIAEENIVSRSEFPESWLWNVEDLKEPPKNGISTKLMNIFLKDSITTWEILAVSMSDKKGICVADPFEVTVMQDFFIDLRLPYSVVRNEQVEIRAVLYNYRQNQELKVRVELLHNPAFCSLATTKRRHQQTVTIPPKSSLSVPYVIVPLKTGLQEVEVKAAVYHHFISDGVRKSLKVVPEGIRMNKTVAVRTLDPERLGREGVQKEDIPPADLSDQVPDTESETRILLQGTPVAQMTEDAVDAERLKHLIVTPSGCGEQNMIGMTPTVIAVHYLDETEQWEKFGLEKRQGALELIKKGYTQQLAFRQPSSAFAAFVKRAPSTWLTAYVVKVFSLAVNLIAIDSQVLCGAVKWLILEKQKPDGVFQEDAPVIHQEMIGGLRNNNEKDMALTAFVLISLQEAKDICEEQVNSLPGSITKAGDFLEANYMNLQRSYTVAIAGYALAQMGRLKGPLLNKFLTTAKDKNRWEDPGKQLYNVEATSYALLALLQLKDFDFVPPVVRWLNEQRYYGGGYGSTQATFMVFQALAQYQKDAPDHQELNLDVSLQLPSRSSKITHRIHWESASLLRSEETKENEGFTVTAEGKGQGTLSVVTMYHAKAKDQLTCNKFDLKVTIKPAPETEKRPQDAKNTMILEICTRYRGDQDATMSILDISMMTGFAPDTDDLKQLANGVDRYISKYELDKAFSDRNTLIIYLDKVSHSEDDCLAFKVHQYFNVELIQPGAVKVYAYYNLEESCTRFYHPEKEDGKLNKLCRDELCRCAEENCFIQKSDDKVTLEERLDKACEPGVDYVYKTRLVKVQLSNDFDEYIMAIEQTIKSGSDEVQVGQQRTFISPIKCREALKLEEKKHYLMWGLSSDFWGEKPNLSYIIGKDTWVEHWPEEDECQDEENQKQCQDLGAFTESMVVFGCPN
Chain of human complement protein C4b (human) (P0C0L4 20-675, chain 1 of 3): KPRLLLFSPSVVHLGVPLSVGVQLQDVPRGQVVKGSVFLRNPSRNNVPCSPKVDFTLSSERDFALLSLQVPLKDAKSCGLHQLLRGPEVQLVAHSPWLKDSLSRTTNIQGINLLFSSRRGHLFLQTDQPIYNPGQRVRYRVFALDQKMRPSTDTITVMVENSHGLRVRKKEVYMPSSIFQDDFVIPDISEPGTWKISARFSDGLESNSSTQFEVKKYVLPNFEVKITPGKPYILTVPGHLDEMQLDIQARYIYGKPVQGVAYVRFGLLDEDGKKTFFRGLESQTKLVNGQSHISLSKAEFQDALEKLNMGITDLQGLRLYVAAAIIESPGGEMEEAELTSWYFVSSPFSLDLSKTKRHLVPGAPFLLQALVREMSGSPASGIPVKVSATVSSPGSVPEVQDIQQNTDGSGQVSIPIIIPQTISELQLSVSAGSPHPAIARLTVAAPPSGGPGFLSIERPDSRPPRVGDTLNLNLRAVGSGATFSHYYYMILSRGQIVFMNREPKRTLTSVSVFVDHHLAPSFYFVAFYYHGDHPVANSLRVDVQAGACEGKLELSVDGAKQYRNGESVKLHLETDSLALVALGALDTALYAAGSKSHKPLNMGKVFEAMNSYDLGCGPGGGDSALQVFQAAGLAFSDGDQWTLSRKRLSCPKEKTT
Chain of human complement protein C4b (human) (P0C0L4 757-1446, chain 2 of 3): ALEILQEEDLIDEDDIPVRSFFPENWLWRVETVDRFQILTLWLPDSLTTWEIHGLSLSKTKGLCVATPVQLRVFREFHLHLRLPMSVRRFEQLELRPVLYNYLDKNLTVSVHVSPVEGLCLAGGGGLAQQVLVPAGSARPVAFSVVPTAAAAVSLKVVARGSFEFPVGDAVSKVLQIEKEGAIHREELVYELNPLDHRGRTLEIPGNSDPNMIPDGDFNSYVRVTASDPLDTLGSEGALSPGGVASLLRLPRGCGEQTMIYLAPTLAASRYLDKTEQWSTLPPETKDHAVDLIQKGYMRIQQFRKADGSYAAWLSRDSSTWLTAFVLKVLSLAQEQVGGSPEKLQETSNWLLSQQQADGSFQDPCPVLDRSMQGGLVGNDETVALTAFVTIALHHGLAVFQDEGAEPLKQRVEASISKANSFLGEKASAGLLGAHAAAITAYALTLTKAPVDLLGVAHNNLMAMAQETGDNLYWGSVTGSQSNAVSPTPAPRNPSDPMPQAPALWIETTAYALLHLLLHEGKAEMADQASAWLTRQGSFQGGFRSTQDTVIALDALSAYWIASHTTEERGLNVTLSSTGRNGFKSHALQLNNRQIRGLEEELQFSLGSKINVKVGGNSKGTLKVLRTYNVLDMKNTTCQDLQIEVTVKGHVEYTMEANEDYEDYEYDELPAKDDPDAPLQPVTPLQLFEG
Chain of human complement protein C4b (human) (P0C0L4 1454-1744, chain 3 of 3): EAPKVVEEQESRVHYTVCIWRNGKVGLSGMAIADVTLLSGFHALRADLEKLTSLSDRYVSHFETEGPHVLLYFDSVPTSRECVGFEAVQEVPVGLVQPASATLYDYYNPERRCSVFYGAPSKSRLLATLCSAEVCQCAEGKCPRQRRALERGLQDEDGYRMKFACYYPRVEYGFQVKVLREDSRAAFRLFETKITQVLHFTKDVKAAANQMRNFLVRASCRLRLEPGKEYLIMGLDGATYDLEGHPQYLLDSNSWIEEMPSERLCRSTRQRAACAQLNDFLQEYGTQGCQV

Row | Substance | Kd [1] [nM] | Kd [2] [nM] | complement-mediated hemolysis of rabbit erythrocytes (alternative pathway) after preincubation of normal human serum with the protein, as % of complement activity in untreated serum [3] | complement-mediated hemolysis of antibody-sensitized sheep erythrocytes (classical pathway) after preincubation of normal human serum with the protein, as % of untreated serum (% of untreated serum) [4]
1 | LigB9-12 (domain or fragment) | 69 | 57 | – | –
2 | LigB7′-12 (from UniProt C0J1Q6 1-1889) (domain or fragment) | 43 | 69 | – | –
3 | LigB9-11 (domain or fragment) | 69 | 67 | 57.8 | 64
4 | LigB8-12 (domain or fragment) | – | – | 38.9 | 71.4
